Key:
[1] = biological target: biotinylated human D-MCP-1 (mirror-image D-protein) (Homo sapiens) (UniProt P13500); experiment: pulldown
[2] = biological target: biotinylated murine D-MCP-1 (mirror-image D-protein) (Mus musculus) (UniProt P10148); experiment: pulldown; conditions: subnanomolar
[3] = biological target: human MCP-1 (CCL2, natural L-form) (Homo sapiens) (UniProt P13500); experiment: SPR; conditions: L-RNA, 37 C, 1 mM Mg, 1 mM Ca
[4] = direct or competitive pull-down

Chain of biotinylated murine D-MCP-1 (mirror-image D-protein) (Mus musculus) (P10148 24-99): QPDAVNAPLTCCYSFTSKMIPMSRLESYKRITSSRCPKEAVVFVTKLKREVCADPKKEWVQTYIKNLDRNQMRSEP
Chain of biotinylated human D-MCP-1 (mirror-image D-protein) (Homo sapiens) (P13500 24-99): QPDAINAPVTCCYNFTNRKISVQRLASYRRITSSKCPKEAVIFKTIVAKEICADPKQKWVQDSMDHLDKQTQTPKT
Chain of human MCP-1 (CCL2, natural L-form) (Homo sapiens) (P13500 24-99): as above

| Sequence | Kd [1, 4] | Kd ([2]; stated for derivatives) | other results |
| --- | --- | --- | --- |
| ACGCACGUCCCUCACCGGUGCAAGUGAAGCCGUGGCUCUGC [D-180-D1-012] | < 1 nM | – | – |
| ACGCACGUCCCUCACCGGUGCAAGUGAAGCCGUGGCUCUGCGU [D-180-D1-002] | < 1 nM | – | – |
| AGCGUGCCAGUGUGAUGGGGGGGCGCGACCCAUUUUACACGCU [D-176-C9trc] | – | – | Kd ([1]; Type 1B): 5 nM |
| AGCGUGCCCGGUGUGGUAGGGGGGCGCGACCUACAUUUGCACGCU [D-176-E10trc] | – | – | Kd ([1]; Type 1A): 5 nM |
| CGCACGUCCCUCACCGGUGCAAGUGAAGCCGUGGCUCUGCG [D-180-D1-035] | < 1 nM | – | – |
| CUGGUUACCGAGGGGGCGUCGUUGGAGUUUGGUUGGUUGUCACCAG [D-189-G7-002] | – | < 1 nM | – |
| GAGAUGGCGACAUUGGUUGGGCAUGAGGCGAGGCCCUUUGAUGAAUCCGCGGCCAUUC [D-188-A3-001] | – | – | Kd [2]: < 1 nM |
| GAUGGCGACAUUGGUUGGGCAUGAGGCGAGGCCCUUUGAUGAAUCCGCGGCCAUUC [D-188-A3-004] | – | < 1 nM | – |
| GCACGUCCCUCACCGGUGCAAGUGAAGCCGUGGCUCUGCG [D-NOX-E36 (D-180-D1-036)] | – | – | Kd ([1]; 37 C, selection buffer 1 mM Mg, 1 mM Ca): 0.146 nM; Kd ([1]; room temperature, selection buffer 1 mM Mg, 1 mM Ca): 0.89 nM |
| GCACGUCCCUCACCGGUGCAAGUGAAGCCGUGGCUCUGCG [NOX-E36 (180-D1-036)] | – | – | Kd ([3]; PioneerF1 chip): 0.89 nM |
| GCACGUCCCUCACCGGUGCAAGUGAAGCCGUGGCUCUGCGU [D-180-D1-011] | < 1 nM | – | – |
| GCCGGCUACCGAGGGGGCGUCGUUGGAGUUUGGUUGGUUGUCGCCGGC [D-189-G7-008] | – | < 1 nM | – |
| GCCGGUUACCGAGGGGGCGUCGUUGGAGUUUGGUUGGUUGUCACCGGC [D-189-G7-007] | – | < 1 nM | – |
| GCGCGUACCGAGGGGGCGUCGUUGGAGUUUGGUUGGUUGUCCGCGC [D-189-G7-010] | – | < 1 nM | – |
| GCUGGUUACCGAGGGGGCGUCGUUGGAGUUUGGUUGGUUGUCACCAGC [D-189-G7-001] | – | – | Kd [2]: < 1 nM |
| GGCGACAUUGGUUGGGCAUGAGGCGAGGCCCUUUGAUGAAUCCGCGGCCAUU [D-188-A3-006] | – | < 1 nM | – |
| GGCGACAUUGGUUGGGCAUGAGGCGAGGCCCUUUGAUGAAUCCGCGGCCAUUC [D-188-A3-005] | – | < 1 nM | – |
| GGGCCUACCGAGGGGGCGUCGUUGGAGUUUGGUUGGUUGUCGGCCC [D-189-G7-012] | – | < 1 nM | – |
| GGGCGUAGUGAGAAACUACCAACGACUGGCUAGAGCCGGCCC [181-A2-018] | – | – | Kd ([3]; CM4 chip): 0.37 nM |
| GUGCGCGUAGUUAAAAACUACCAGCGACUGGCUAGAGCCGGCGCAC [D-178-D5-030] | 0.5 nM | – | – |
| GUGCUGCGUAGUGAGAAACUACCAACGACUGGCUAGAGCCGGCAGCAC [D-181-A2] | 0.1 nM | – | – |
| GUGCUGCGUAGUUAAAAACUACCAGCGACUGGCUAGAGCCGGCAGCAC [D-178-D5] | 0.5 nM | – | – |
| UGGUUACCGAGGGGGCGUCGUUGGAGUUUGGUUGGUUGUCACCA [D-189-G7-003] | – | < 1 nM | – |

Source: patent US20090156542
